Test results reported in the RNAGym collection of RNA variant scans (doi:10.7554/elife.80360).

B1: Hairpin Ribozyme (parent)
chain: GUCCUCUUUCACGUGCGCGUGAAAGAGAGAAGUGAACCAGAGAAACACACGUUGUGGUAUAUUACCUGGUA

Variants of: B1
Experiment: self-cleavage, relative activity (ratio to wild type); higher = more cleavage; co-transcriptional

In order of falling self-cleavage:
1. G27A G34U  1.3
2. C16G A36G  1.06
3. C18U A23U  0.997
4. G17A A23C  0.987
5. C3A G34C  0.984
6. G34U U62A  0.981
7. C16U A22U  0.972
8. G34C G42A  0.968
9. G21C U70C  0.965
10. A11C U53A  0.919
11. A24U U53C  0.885
12. U7G A23U  0.883
13. U14C G19U  0.88
14. G15A G17A  0.87
15. A26G U70G  0.81
16. A36U U60C  0.804
17. U7G C10A  0.765
18. A11G C65A  0.759
19. C18A A36C  0.711
20. C4U A41U  0.71
21. A22U A24C  0.71
22. A26G U58G  0.693
23. U14G C16A  0.681
24. U5C G15A  0.675
25. C10G A22U  0.661
26. C16G U60A  0.62
27. C16A U58A  0.597
28. A11G G25C  0.587
29. U5C A22C  0.586
30. G21U G54A  0.582
31. U53A U58C  0.574
32. C18U C66U  0.554
33. C10G G17U  0.539
34. C18A A39C  0.538
35. U5G C37U  0.516
36. A23G A36U  0.514
37. A26C G54A  0.511
38. A22U A49G  0.488
39. G27A G51U  0.458
40. C6U A31G  0.451
41. C6G G19A  0.45
42. A26U G51C  0.447
43. C6A A64G  0.444
44. C6G U9C  0.436
45. C3G U14A  0.431
46. C10U C66U  0.43
47. U9C G54C  0.413
48. C18G G27A  0.407
49. G34U C46G  0.397
50. C16G A26C  0.388
51. C48U A71C  0.387
52. U2G A28C  0.384
53. U14A C37A  0.378
54. G27C A41U  0.367
55. U53C G68U  0.361
56. A24U C50G  0.341
57. G19C U55G  0.335
58. U8A A39U  0.334
59. G54U A71U  0.333
60. A39C U60G  0.33
61. A26G A36U  0.326
62. A47C U60G  0.324
63. C3U A11U  0.32
64. C4U A23C  0.3
65. C10G G69A  0.299
66. A31G C66U  0.294
67. G17C A28U  0.28
68. A36G U55G  0.271
69. G17U C37G  0.256
70. C6U G69U  0.256
71. G21A U67C  0.248
72. A23U G42U  0.246
73. G1C U20C  0.241
74. U8C A31G  0.241
75. G1C A26G  0.239
76. A23U U67A  0.237
77. C4U C38U  0.234
78. C38A G40U  0.23
79. A26C G56U  0.23
80. A36G A43C  0.228
81. A44G G56U  0.226
82. G32C A61C  0.222
83. C38A U60G  0.218
84. U62G G69C  0.217
85. G29A G54U  0.214
86. U2G C48A  0.213
87. C48U U70G  0.211
88. G29U U70A  0.21
89. G25A A59U  0.21
90. A24C U67C  0.208
91. U67C G68U  0.208
92. G42A A44U  0.207
93. A11G U63C  0.204
94. C16G U63C  0.204
95. A61C U70A  0.204
96. G56U G57U  0.204
97. A35U C65G  0.204
98. A30G C46A  0.202
99. G21A G56C  0.2
100. A44G G69C  0.196
101. A64U C65U  0.194
102. A31C A47U  0.192
103. C6G G69U  0.188
104. A22U G27U  0.187
105. A47C U62C  0.187
106. C12A G40U  0.186
107. C12U C48G  0.185
108. C46G A59G  0.185
109. G17C G56U  0.185
110. U60A G69A  0.183
111. C3G C10A  0.18
112. A31C U53G  0.176
113. U2G C38G  0.172
114. C3A U55A  0.172
115. U5G A31G  0.17
116. U63G G69U  0.169
117. U55A G56A  0.168
118. U14C A49C  0.162
119. U8C A43G  0.16
120. G25U G68U  0.159
121. A43U A64G  0.159
122. G19C G29U  0.159
123. U20G U67G  0.157
124. G42U C46G  0.156
125. G25C C38G  0.15
126. U7A G32U  0.149
127. G27C G42A  0.148
128. C3U U33A  0.147
129. C48A U70G  0.144
130. G1C G69A  0.141
131. G40C U55G  0.138
132. A28U A30U  0.136
133. C10A A43U  0.133
134. G42C A61C  0.133
135. G1C A47G  0.13
136. G27C A47G  0.125
137. G19A G56A  0.124
138. A59C U62G  0.123
139. C6A G69U  0.121
140. A61U A64G  0.121
141. G13A A43C  0.119
142. A23C A30U  0.118
143. C10A U63A  0.118
144. G29C G40A  0.115
145. G34A A44U  0.113
146. U5A G42C  0.106
147. A39C A45G  0.105
148. A11G G32U  0.104
149. A59C U62C  0.0999
150. A41U C46U  0.0994
151. G15C A61C  0.0894
152. C4U G68C  0.0882
153. U5G A47U  0.0832
154. C6U G32C  0.0823
155. A43U U60G  0.0802
156. U14C C38A  0.0751
157. G25U C38G  0.0734
158. U5C C50A  0.0675
159. A22U U63C  0.0646
160. U14C G32A  0.0498
161. U33G A61C  0.041
162. A24G A31C  0.041
163. A28G G32U  0.0347
164. U7C A49C  0.0316
165. U2C G68A  0.0299
166. G1C A45C  0
167. A31U A41U  0
